Measurements reported in publication PMC10649158.

Target: Canavalia villosa seed lectin (Cvill) (Canavalia villosa)
Experiment: crystal structure; Cvill with alpha-methyl-D-mannopyranoside; 17.5% PEG1000, 0.1 M potassium phosphate citrate pH 4.2, 200 mM lithium sulfate, room temperature; space group I222, one monomer per asymmetric unit; tetramer formed by the crystal's 222 symmetry, dimers and tetramers predicted with PISA

- stoichiometry N: 4
Substance: Canavalia villosa seed lectin (Cvill) (natural protein)
